Assay results published in patent US20240117018A1.

Tests used:
Assay in all cases: cell-based or functional assay
[1] = biological target: HIV-1 Env of pseudovirus Q842.d12 (HIV-1)
[2] = biological target: HIV-1 Env of pseudovirus 1054_07_TC4_1499 (HIV-1)
[3] = biological target: HIV-1 Env of pseudovirus 1394C9G1(Rev-) (HIV-1)
[4] = biological target: HIV-1 Env of pseudovirus AC10.0.29 (HIV-1)
[5] = biological target: HIV-1 Env of pseudovirus CNE58 (HIV-1)
[6] = biological target: HIV-1 Env of pseudovirus ZM109F.PB4 (HIV-1)
[7] = biological target: HIV-1 Env of pseudovirus ZM197M.PB7 (HIV-1)
[8] = biological target: HIV-1 Env of pseudovirus ZM214M.PL15 (HIV-1)
[9] = biological target: HIV-1 Env of pseudovirus HIV-16055-2.3 (HIV-1)
[10] = biological target: HIV-1 Env of pseudovirus Q769.d22 (HIV-1)
[11] = biological target: HIV-1 Env of pseudovirus ZM233M.PB6 (HIV-1)
[12] = biological target: HIV-1 Env of pseudovirus Ce0393_C3 (HIV-1)
[13] = biological target: HIV-1 Env of pseudovirus WEAU_d15_410_787 (HIV-1)
[14] = biological target: HIV-1 Env of pseudovirus Du172.17 (HIV-1)
[15] = biological target: HIV-1 Env of pseudovirus Du422.1 (HIV-1)
[16] = biological target: HIV-1 Env of pseudovirus CNE52 (HIV-1)
[17] = biological target: HIV-1 Env of pseudovirus Ce2010_F5 (HIV-1)
[18] = biological target: HIV-1 Env of pseudovirus 62357_14_D3_4589 (HIV-1)
[19] = biological target: HIV-1 Env of pseudovirus HIV-0013095-2.11 (HIV-1)
[20] = biological target: HIV-1 Env of pseudovirus ZM135M.PL10a (HIV-1)
[21] = biological target: HIV-1 Env of pseudovirus CNE53 (HIV-1)
[22] = biological target: HIV-1 Env of pseudovirus ZM53M.PB12 (HIV-1)
[23] = biological target: HIV-1 Env of pseudovirus ZM247v1(Rev-) (HIV-1)
[24] = biological target: HIV-1 Env of pseudovirus CNE20 (HIV-1)
[25] = biological target: HIV-1 Env of pseudovirus CAAN5342.A2 (HIV-1)
[26] = biological target: HIV-1 Env of pseudovirus Ce1176_A3 (HIV-1)
[27] = biological target: HIV-1 Env of pseudovirus 1012_11_TC21_3257 (HIV-1)
[28] = biological target: HIV-1 Env of pseudovirus Ce2060_G9 (HIV-1)
[29] = biological target: HIV-1 Env of pseudovirus T257-31 (HIV-1)
[30] = biological target: HIV-1 Env of pseudovirus TRO.11 (HIV-1)

Work on VRC07 (antibody) yielded an IC50 [1] of 0.015 µg/mL, an IC80 [1] of 0.051 µg/mL and an IC50 [2] of 0.239 µg/mL. The IC80 [2] was 1.46 µg/mL, the IC50 [3] was 0.112 µg/mL and the IC80 [3] was 0.368 µg/mL. For the same substance, the IC50 [4] was 0.282 µg/mL, the IC80 [4] was 0.986 µg/mL and the IC50 [5] was 0.11 µg/mL. It also gave an IC80 [5] of 0.298 µg/mL, an IC50 [6] of 0.112 µg/mL and an IC80 [6] of 0.389 µg/mL. The IC50 [7] was 0.307 µg/mL, the IC80 [7] was 1.27 µg/mL and the IC50 [8] was 0.198 µg/mL. For the same substance, the IC80 [8] was 1.42 µg/mL, the IC50 [9] was 0.025 µg/mL and the IC80 [9] was 0.135 µg/mL. For the same substance, the IC50 [10] was 0.018 µg/mL, the IC80 [10] was 0.087 µg/mL and the IC50 [11] was 0.152 µg/mL. The IC80 [11] was 0.625 µg/mL, the IC50 [12] was 0.182 µg/mL and the IC80 [12] was 0.634 µg/mL. It also gave an IC50 [13] of 0.034 µg/mL, an IC80 [13] of 0.115 µg/mL and an IC50 [14] of 0.796 µg/mL. For the same substance, the IC80 [14] was 3.66 µg/mL, the IC50 [15] was > 50 µg/mL and the IC80 [15] was > 50 µg/mL. The IC50 [16] was 0.042 µg/mL, the IC80 [16] was 0.142 µg/mL and the IC50 [17] was 0.131 µg/mL. It also gave an IC80 [17] of 0.48 µg/mL, an IC50 [18] of 0.075 µg/mL and an IC80 [18] of 0.256 µg/mL. The IC50 [19] was 0.017 µg/mL, the IC80 [19] was 0.057 µg/mL and the IC50 [20] was 0.104 µg/mL. The IC80 [20] was 0.383 µg/mL, the IC50 [21] was 0.031 µg/mL and the IC80 [21] was 0.086 µg/mL. The IC50 [22] was 0.275 µg/mL, the IC80 [22] was 1.29 µg/mL and the IC50 [23] was 0.041 µg/mL. For the same substance, the IC80 [23] was 0.189 µg/mL, the IC50 [24] was 0.06 µg/mL and the IC80 [24] was 0.129 µg/mL. It also gave an IC50 [25] of 0.307 µg/mL, an IC80 [25] of 1.05 µg/mL and an IC50 [26] of 0.52 µg/mL. The IC80 [26] was 2.6 µg/mL, the IC50 [27] was 0.014 µg/mL and the IC80 [27] was 0.045 µg/mL. The IC50 [28] was 0.085 µg/mL, the IC80 [28] was 0.422 µg/mL and the IC50 [29] was 0.421 µg/mL. The IC80 [29] was 3.17 µg/mL, the IC50 [30] was 0.132 µg/mL and the IC80 [30] was 0.456 µg/mL.

Work on NIH 45-46 (antibody) yielded an IC50 [1] of 0.03 µg/mL, an IC80 [1] of 0.03 µg/mL and an IC50 [2] of 0.07 µg/mL. It also gave an IC80 [2] of 0.61 µg/mL, an IC50 [3] of 0.09 µg/mL and an IC80 [3] of 0.38 µg/mL. The IC50 [4] was 0.42 µg/mL, the IC80 [4] was 1.49 µg/mL and the IC50 [5] was 0.25 µg/mL. The IC80 [5] was 1.49 µg/mL, the IC50 [6] was 0.22 µg/mL and the IC80 [6] was 0.22 µg/mL. The IC50 [7] was 0.14 µg/mL, the IC80 [7] was 0.64 µg/mL and the IC50 [8] was 0.05 µg/mL. The IC80 [8] was 0.39 µg/mL, the IC50 [9] was 0.02 µg/mL and the IC80 [9] was 0.06 µg/mL. It also gave an IC50 [10] of 0.01 µg/mL, an IC80 [10] of 0.04 µg/mL and an IC50 [11] of 1.86 µg/mL. It also gave an IC80 [11] of 16.5 µg/mL, an IC50 [12] of 0.32 µg/mL and an IC80 [12] of 1.07 µg/mL. The IC50 [13] was 0.01 µg/mL, the IC80 [13] was 0.03 µg/mL and the IC50 [14] was > 30 µg/mL. The IC80 [14] was > 30 µg/mL, the IC50 [15] was > 50 µg/mL and the IC80 [15] was > 50 µg/mL. For the same substance, the IC50 [16] was 0.03 µg/mL, the IC80 [16] was 0.12 µg/mL and the IC50 [17] was 0.13 µg/mL. The IC80 [17] was 0.43 µg/mL, the IC50 [18] was 0.05 µg/mL and the IC80 [18] was 0.22 µg/mL. The IC50 [19] was 0.01 µg/mL, the IC80 [19] was 0.03 µg/mL and the IC50 [20] was 0.36 µg/mL. The IC80 [20] was 3.11 µg/mL, the IC50 [21] was 0.01 µg/mL and the IC80 [21] was 0.04 µg/mL. It also gave an IC50 [22] of 0.65 µg/mL, an IC80 [22] of 0.65 µg/mL and an IC50 [23] of 1.64 µg/mL. The IC80 [23] was > 50 µg/mL, the IC50 [24] was 8.71 µg/mL and the IC80 [24] was 47 µg/mL. For the same substance, the IC50 [25] was 0.11 µg/mL, the IC80 [25] was 0.33 µg/mL and the IC50 [26] was 1.29 µg/mL. The IC80 [26] was 5.55 µg/mL, the IC50 [27] was 0.01 µg/mL and the IC80 [27] was 0.04 µg/mL. For the same substance, the IC50 [28] was 0.14 µg/mL, the IC80 [28] was 0.48 µg/mL and the IC50 [29] was 0.23 µg/mL. It also gave an IC80 [29] of 1.11 µg/mL, an IC50 [30] of 1.9 µg/mL and an IC80 [30] of 9.56 µg/mL.

8ANC195 (antibody) was tested, and the IC50 [1] was > 30 µg/mL, the IC80 [1] was > 30 µg/mL and the IC50 [2] was 1.02 µg/mL. The IC80 [2] was 6.75 µg/mL, the IC50 [3] was > 50 µg/mL and the IC80 [3] was > 50 µg/mL. The IC50 [4] was 0.88 µg/mL, the IC80 [4] was 7 µg/mL and the IC50 [5] was > 50 µg/mL. For the same substance, the IC80 [5] was > 50 µg/mL, the IC50 [6] was > 30 µg/mL and the IC80 [6] was > 30 µg/mL. The IC50 [7] was 23.4 µg/mL, the IC80 [7] was > 50 µg/mL and the IC50 [8] was 0.91 µg/mL. For the same substance, the IC80 [8] was 12.3 µg/mL, the IC50 [9] was 15.3 µg/mL and the IC80 [9] was > 50 µg/mL. It also gave an IC50 [10] of 0.26 µg/mL, an IC80 [10] of 1.2 µg/mL and an IC50 [11] of 7.39 µg/mL. The IC80 [11] was 43.5 µg/mL, the IC50 [12] was 6.77 µg/mL and the IC80 [12] was > 50 µg/mL. For the same substance, the IC50 [13] was > 50 µg/mL, the IC80 [13] was > 50 µg/mL and the IC50 [14] was > 30 µg/mL. The IC80 [14] was > 30 µg/mL, the IC50 [15] was > 50 µg/mL and the IC80 [15] was > 50 µg/mL. For the same substance, the IC50 [16] was 5.59 µg/mL, the IC80 [16] was 43.1 µg/mL and the IC50 [17] was > 50 µg/mL. For the same substance, the IC80 [17] was > 50 µg/mL, the IC50 [18] was > 50 µg/mL and the IC80 [18] was > 50 µg/mL. The IC50 [19] was 0.32 µg/mL, the IC80 [19] was 1.85 µg/mL and the IC50 [20] was > 50 µg/mL. For the same substance, the IC80 [20] was > 50 µg/mL, the IC50 [21] was > 50 µg/mL and the IC80 [21] was > 50 µg/mL. The IC50 [22] was > 30 µg/mL, the IC80 [22] was > 30 µg/mL and the IC50 [23] was 3.41 µg/mL. It also gave an IC80 [23] of 25.1 µg/mL, an IC50 [24] of 0.5 µg/mL and an IC80 [24] of 3.19 µg/mL. For the same substance, the IC50 [25] was > 50 µg/mL, the IC80 [25] was > 50 µg/mL and the IC50 [26] was 4.45 µg/mL. The IC80 [26] was 35.2 µg/mL, the IC50 [27] was > 50 µg/mL and the IC80 [27] was > 50 µg/mL. The IC50 [28] was 6.2 µg/mL, the IC80 [28] was > 50 µg/mL and the IC50 [29] was 0.32 µg/mL. It also gave an IC80 [29] of 3.89 µg/mL, an IC50 [30] of 0.18 µg/mL and an IC80 [30] of 0.89 µg/mL.
